Drawing on patent publication US20250326842A1, this text covers Kd and EC50 (read off the curve) for one substance.

The target of one experiment is FcγRIIA H131 (human) (UniProt P12318). Description: Biacore, KD from equilibrium analysis.
The target of the next experiment is FcγRIIA R131 (human) (UniProt P12318). Description: Biacore, KD from equilibrium analysis. (SPR reads the build-up and loss of mass on a sensor chip optically.)
The target of the next experiment is FcγRIIB (human) (UniProt P31994). As to the kind of experiment: Biacore, KD from equilibrium analysis.
In a further experiment the target is FcγRIIIA F158 (human) (UniProt P08637). Description: Biacore, KD from equilibrium analysis.
A further experiment addresses FcγRI (human) (UniProt P12314). Description: Biacore, KD from kinetic constants (koff/kon).
The target of another experiment is Human C1q (human) (UniProt P02745). Description: ELISA: plate coated with increasing amounts of antibody, human C1q at 8 µg/mL, anti-C1q antibody detection. For orientation: In an ELISA, binding on a coated surface is turned into a signal by an enzyme label.
Sequence of Human C1q (human) (P02745 23-245 limits assumed, chain 1 of 3): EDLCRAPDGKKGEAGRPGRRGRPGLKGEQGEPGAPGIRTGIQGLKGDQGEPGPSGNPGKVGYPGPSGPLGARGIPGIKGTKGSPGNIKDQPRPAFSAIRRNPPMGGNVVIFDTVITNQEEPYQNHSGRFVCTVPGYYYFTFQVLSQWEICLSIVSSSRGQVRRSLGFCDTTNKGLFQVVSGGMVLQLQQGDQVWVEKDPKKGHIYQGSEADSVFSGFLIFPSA
Sequence of Human C1q (human) (P02746 28-253 limits assumed, chain 2 of 3, further chain): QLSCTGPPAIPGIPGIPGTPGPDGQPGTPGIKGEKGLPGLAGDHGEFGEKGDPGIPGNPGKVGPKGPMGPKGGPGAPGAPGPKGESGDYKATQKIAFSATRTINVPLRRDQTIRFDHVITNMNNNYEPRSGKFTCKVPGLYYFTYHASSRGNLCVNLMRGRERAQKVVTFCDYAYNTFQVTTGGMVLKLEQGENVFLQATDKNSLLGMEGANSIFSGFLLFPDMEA
Sequence of Human C1q (human) (P02747 29-245 limits assumed, chain 3 of 3, further chain): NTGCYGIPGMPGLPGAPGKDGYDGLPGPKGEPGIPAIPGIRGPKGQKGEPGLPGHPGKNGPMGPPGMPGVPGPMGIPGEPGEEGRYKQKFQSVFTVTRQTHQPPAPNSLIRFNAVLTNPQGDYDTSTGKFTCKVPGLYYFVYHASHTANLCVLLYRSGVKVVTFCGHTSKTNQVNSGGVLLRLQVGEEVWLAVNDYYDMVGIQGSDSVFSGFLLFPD

Sequence of FcγRI (human) (P12314 16-288 limits assumed): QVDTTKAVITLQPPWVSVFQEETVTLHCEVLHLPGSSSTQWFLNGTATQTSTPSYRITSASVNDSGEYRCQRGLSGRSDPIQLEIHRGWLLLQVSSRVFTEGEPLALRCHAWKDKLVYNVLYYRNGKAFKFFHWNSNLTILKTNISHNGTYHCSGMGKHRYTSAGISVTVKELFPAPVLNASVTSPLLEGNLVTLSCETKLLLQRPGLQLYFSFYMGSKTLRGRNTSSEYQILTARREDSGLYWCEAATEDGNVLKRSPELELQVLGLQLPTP
Sequence of FcγRIIB (human) (P31994 46-217 limits assumed): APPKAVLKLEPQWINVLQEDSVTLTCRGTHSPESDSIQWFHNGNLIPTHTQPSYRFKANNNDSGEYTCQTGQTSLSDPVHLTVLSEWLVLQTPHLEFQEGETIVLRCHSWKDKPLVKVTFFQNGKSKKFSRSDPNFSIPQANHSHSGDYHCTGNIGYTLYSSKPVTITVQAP
Sequence of FcγRIIA R131 (human) (P12318 36-218 H167R limits assumed): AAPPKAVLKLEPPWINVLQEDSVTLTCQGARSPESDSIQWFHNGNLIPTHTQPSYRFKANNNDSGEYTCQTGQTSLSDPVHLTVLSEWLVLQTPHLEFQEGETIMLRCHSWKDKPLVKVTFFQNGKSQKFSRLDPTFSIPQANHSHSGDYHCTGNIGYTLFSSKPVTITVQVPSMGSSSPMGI
Sequence of FcγRIIA H131 (human) (P12318 36-218 limits assumed): as the sequence (P12318 36-218 H167R limits assumed) above, with R132H counted along it
Sequence of FcγRIIIA F158 (human) (P08637 17-208 limits assumed): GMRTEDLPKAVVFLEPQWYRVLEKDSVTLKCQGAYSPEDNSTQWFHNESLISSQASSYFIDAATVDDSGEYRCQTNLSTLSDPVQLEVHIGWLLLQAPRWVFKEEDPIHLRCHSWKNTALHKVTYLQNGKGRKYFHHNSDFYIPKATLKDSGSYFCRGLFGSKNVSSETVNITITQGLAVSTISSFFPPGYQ

With HuIgG (antibody), the Kd (usually the constant that tells how readily two partners part at equilibrium) with FcγRIIA H131 (human) worked out at 0.379 µM; with FcγRIIA R131 (human), 0.481 µM; with FcγRIIB (human) it was 3.12 µM; in the experiment with FcγRIIIA F158 (human), 0.691 µM; with FcγRI (human) it was 0.0027 µM. Besides, the EC50 (read off the curve) (as a rule, the concentration that produces a half-maximal response) with Human C1q (human) amounted to 2 mg/L.
